In the DeepSol protein solubility set:

Assay: soluble on expression in E. coli; label from the status in PepcDB or PDB records

Soluble on expression in E. coli, not soluble:
METKDLIVIGGGINGAGIAADAAGRGLSVLMLEAQDLACATSSASSKLIHGGLRYLEHYEFRLVSEALAEREVLLKMAPHIAFPMRFRLPHRPHLRPAWMIRIGLFMYDHLGKRTSLPGSTGVRFGADSVLKPEIVRGFEYSDCWVDDARLVLANAQMVVRKGGEVLTRTRATAARRENGLWIVEAEDIDTGKKYVWQARGLVNATGPWVKQFFDEGMHLPSPYGIRLIKGSHIVVPRVHNQKQAYILQNEDKRIVFVIPWMEEFSIIGTTDVEYKGDPKAVKIEESEINYLLKVYNAHFQKQLGRDDIVWTYSGVRPLCDDESDSPQAITRDYTLDIHDENGKAPLLSVFGGKLTTYRKLAEHAMEKLASYYPGIGPAWTKTCVLPGGDIDGSREDYAAKLRRRYPFLTESLARHYSRTYGSNTEWILGEATSLLDLGEDFGHEFYEAELKYLVDHEWVRRTEDAIWRRTKEGMWLTAEQQSRITQWLAAYVEKHQLSMAS
MFQLSTQDIHLAAQADNKNAAITQVAAALTQAGCVTAAYVDGMLAREQQTSTYLGNGIAIPHGTTDTRDQVLNTGVQVFQFPQGIEWGADQTAYIVIGIAARSDEHLALLRQLTHVLSDDAVAARLAKTTSAEELRSLLMGEQKTAEFHFDTSLIALDVAADNLITLQALNAGRLQQIGAVDARFVSDVITREPLNLGQGIWLSDSTEGNLVSAVTISRPATAFEHKGEKVALLLTLSVADDQPLTVLNYLSELLLAQKADALLNADAAALLALLTSEYVEQSKVLSAEFVIRNEHGLHARPGTILVNTIKQFTSEITVTNLDGTGKPANGRSLMKVVALGVKKGNRLRFTASGEDAQTALDTIGEVIAAGLGEGAA
MEQPLMPPAPPSYVASQSQAITTQPGASIPMPPGTIVIEALPPVEGIPGGLEYLAYLDTIMVHQFLEPIEIRTGWETKNKYAIKKICYQKRQCCGAERAFVMHIVDNFNKEVLTVKRERHCCGCCCWLGSTNKSTIESPSMGLLGTVLLGHGCTNSHCNVLDKDEELLFLVDGQGCCTYCCCDDKAFTIKTPDTYKRIGAITKKWGGIIREAYTDADTFAVTFPADLDVKAKALLLATTILQSLRVVVEVEKLEIEIFICCALFMK

Soluble on expression in E. coli, soluble:
MSLTFSILAHDPETGAIGGAAATGSLCVGGWVLRGDLNAGMSASQGAAPSTFWGEEVLQHLRDGSHPEDAVNHVTSQDSGRAYRQLAAMDLLGNAAAFTGSENQDIKGSVTFASGIASGNMLGDNSVLGAMTEAFVASDLTFERRLLAALIAAEGAGSDFRGLLSAAMLVLHPDRPPVTLRIDYHPDNPIGALEQLYQKATTGDYADWARQVPVLSDKERILDEGHHHHHH
MSLTREVGQRREAEETAHKLAHTDPLTGCLNRRSMGPAVEQMVSTARTSGHEVVVMMMDLDNFKRSNDVHGHQAGDAVLLHTADRIRAILPAGSIIARLGGDEFACAAIFDPDHVESIDRLILRMNEAVAMPVRVDGLMLEVTASIGLAATSAADAGAPPALADTLLHRADLAMYQAKKAGRNRYCWFEQNMESELRFRSELEREIREGVARGEFVPYYEKQIDLETGELTGFEMLARWRSPRHGLLSPEIFIPIAEEIGLISELSENLIRQALRDARDWDPTLTLSVNISPIQLRDPWFAQKLLKLLVEANFPPHRLDIEITETCLHENVGVVRTLITSLKNQGIRISLDDFGTGYSSLAQLRTLPFDQIKIDRFFVSNLGKNKDSATIVEAISSLGKGMDLPITAEGIESPEVLDELRKFGKFKGQGFLYGQPGDASEIRAMLADRQLLQQQAEGHHHHHH
AIAVEVESDSVAERDRSSFLAGHDAIRLAKSCVDSPPERWYAALYQVYADLTKLRCWSNVEVVYSDSATFPTGLLGPLFEEDSMVQELHSAQCILGSERACFHVRCCIVGSPPSGRAINALSPQSETRTEERIITSRREPEVVIAVPMHAMLKLSNLDQALRMSSHIEGIVKNRHVADSSASTHSTDRQAGSRKSSVIFGFVDEDTTTAYYRIREGACESNDRREFSTDDIASCLAQERT
MGSSHHHHHHSSGTIEGRMIRLTDNRPIGFIDSGVGGLTVVKEALKQLPNENILFVGDTARCPYGPRPAEQVIQYTWEMTDYLVEQGIKMLVIACNTATAVALEEIKAALSIPVIGVILPGTRAAVKKTQNKQVGIIGTIGTVKSQAYEKALKEKVPELTVTSLACPKFVSVVESNEYHSSVAKKIVAETLAPLTTKKIDTLILGCTHYPLLRPIIQNVMGENVQLIDSGAETVGEVSMLLDYFNLSNSPQNGRTLCQFYTTGSAKLFEEIAEDWLGIGHLNVEHIELGGK
